Assay results: patent US20250313637A1 (DREN BIO MANAGEMENT, published 2025)

T1: human Dectin-1 expressed by HEK-Blue hDectin-1-a cells (human, UniProt Q9BXN2 1-247)
T1 sequence: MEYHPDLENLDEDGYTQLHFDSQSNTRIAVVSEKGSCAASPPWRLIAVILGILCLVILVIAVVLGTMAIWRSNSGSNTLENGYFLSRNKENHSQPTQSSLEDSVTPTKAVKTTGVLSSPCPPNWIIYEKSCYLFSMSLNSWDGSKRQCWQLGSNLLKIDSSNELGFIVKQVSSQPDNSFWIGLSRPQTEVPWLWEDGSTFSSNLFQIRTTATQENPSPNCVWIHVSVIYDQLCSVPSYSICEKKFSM

T2: CD20 expressed on Raji cells (UniProt P11836 1-297, limits assumed)
T2 construct: whole, on cells; also called CD20-expressing Raji cells; CD20-expressing B cell lymphoma Raji cell line
T2 sequence (looked up): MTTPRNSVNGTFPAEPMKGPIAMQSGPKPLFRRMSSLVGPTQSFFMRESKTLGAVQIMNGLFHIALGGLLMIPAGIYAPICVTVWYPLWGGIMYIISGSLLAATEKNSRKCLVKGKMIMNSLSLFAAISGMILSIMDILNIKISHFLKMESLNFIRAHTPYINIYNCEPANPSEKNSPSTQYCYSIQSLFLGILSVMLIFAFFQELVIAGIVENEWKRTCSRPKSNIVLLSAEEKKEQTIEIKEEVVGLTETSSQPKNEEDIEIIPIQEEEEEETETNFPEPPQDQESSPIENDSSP


How the values were obtained:
[1] = target: T1, human Dectin-1 expressed by HEK-Blue …; assay: cell-based or functional assay
[2] = target: T2, CD20 expressed on Raji cells; assay: flow cytometry on CD20-expressing Raji cells
Description: To evaluate the effect of the 2M24xCD20 bispecific antibody on cells, its binding affinity for cells expressing Dectin-1 or CD20 was measured. Two different formats were used to drive heavy:light chain pairing and bispecific antibody assembly: the DuetMab format with engineered disulfide bonds (see Mazor, Y. et al. (2015) MAbs 7:377-389) (“2M24xCD20 hG1 Duet”) and the M-Fab format described herein (see, e.g., FIG. 3) (“2M24xCD20 hG1M”), as compared to monospecific anti-CD20 with hG1 Fc. Binding of the bispecific 2M24xCD20 antibodies to Dectin-1-expressing HEK293 cells was assessed by flow cytometry (FIG. 7A). Both M-Fab and DuetMab formats were able to bind cells expressing Dectin-1 with similar affinities. Binding of the bispecific 2M24xCD20 antibodies to cells expressing CD20 was also assessed by flow cytometry, using the CD20-expressing B cell lymphoma Raji cell line (FIG. 7B). Both M-Fab and DuetMab were able to bind cells expressing CD20 with similar affinities, but with reduced affinity compared to the parental monospecific anti-CD20 antibody.

Binder | SEAP reporter assay EC50 (OD630), HEK-Blue hDectin-1-a cells co-cultured with CD20-expressing Raji cells, Exp. 1 [1] [nM] | SEAP reporter assay EC50 (OD630), HEK-Blue hDectin-1-a cells co-cultured with CD20-expressing Raji cells, Exp. 2 [1] [nM] | binding result [2] | SEAP reporter assay EC50, in presence of CHO cells (~2 million copies/cell) [1] [nM] | SEAP reporter assay EC50, in presence of H2170 cells expressing Trop2 (~136,000 copies/cell) [1] [nM] | SEAP reporter assay EC50, in presence of HeLa cells expressing Trop2 (~25,500 copies/cell) [1] [nM] | SEAP reporter assay, fold shift in EC50 against traditional bispecific, CHO cells [1] [fold] | SEAP reporter assay, fold shift in EC50 against traditional bispecific, H2170 cells [1] [fold] | SEAP reporter assay, fold shift in EC50 against traditional bispecific, HeLa cells [1] [fold]
DuetMab 2M24xCD20 bispecific antibody (2M24xCD20 hG1 Duet) (bispecific antibody, V domains shown, Human IgG1 in the DuetMab format with engineered disulfide bonds (Mazor 2015)) VH 1: QVQLVQSGAEVKKPGASVKVSCKSSGYTFTDYYIHWVRQAPGQGLEWMGWINPNSGDTNYAQKFQGRITMTRDTSISTAYLELSRLRSDDTAVFYCARNSGSYSFGYWGQGTLVTVSS VL 1: DIQMTQSPSSVSASVGDRVTITCRASQGISSWLAWYQQKPGKAPKLLIFGASSLQSGVPSRFSGSGSGTDFTLTVSSLQPEDFATYYCQQAYSFPFTFGPGTKVDIE VH 2: QVQLQQPGAELVKPGASVKMSCKASGYTFTSYNMHWVKQTPGRGLEWIGAIYPGNGDTSYNQKFKGKATLTADKSSSTAYMQLSSLTSEDSAVYYCARSTYYGGDWYFNVWGAGTTVTVSA VL 2: QIVLSQSPAILSASPGEKVTMTCRASSSVSYIHWFQQKPGSSPKPWIYATSNLASGVPVRFSGSGSGTSYSLTISRVEAEDAATYYCQQWTSNPPTFGGGTKLEIK | 2.63 | 3.19 | binds |  |  |  |  |  | 
2+1 M-Fab (2M24xTrop2 hIgG1) bispecific antibody (bispecific antibody) heavy 1: not shown light 1: not shown heavy 2: not shown light 2: DIVLTQSPGTLSLSPGERATLSCRASQSVSSSYLAWYQQKPGQAPRLLISGASSRATGIPDRFSGSGSGTDFTLTISRLEPEDFAVYYCQQYGSSHRTFGQGTKVEIKRTVALHRPDVYLLPPAREQLNLRESATIWCLVTGFSPADVFVQWMQRGQPLSPEKYVTSAPMPEPQAPGRYFAHSILTVSEEEWNTGETYTCVVAHEALPNRVTERTVDKSTGES |  |  |  | 0.13 | 0.17 | 0.37 | 9.8 | 47.6 | 4.7
M-Fab 2M24xCD20 bispecific antibody (2M24xCD20 hG1M) (bispecific antibody, human IgG1, kappa) heavy 1: not shown light 1: DIQMTQSPSSVSASVGDRVTITCRASQGISSWLAWYQQKPGKAPKLLIFGASSLQSGVPSRFSGSGSGTDFTLTVSSLQPEDFATYYCQQAYSFPFTFGPGTKVDIERTVALHRPDVYLLPPAREQLNLRESATIWCLVTGFSPADVFVQWMQRGQPLSPEKYVTSAPMPEPQAPGRYFAHSILTVSEEEWNTGETYTCVVAHEALPNRVTERTVDKSTGEC heavy 2: QVQLQQPGAELVKPGASVKMSCKASGYTFTSYNMHWVKQTPGRGLEWIGAIYPGNGDTSYNQKFKGKATLTADKSSSTAYMQLSSLTSEDSAVYYCARSTYYGGDWYFNVWGAGTTVTVSAASTKGPSVFPLAPSSKSTSGGTAALGCLVKDYFPEPVTVSWNSGALTSGVHTFPAVLQSSGLYSLSSVVTVPSSSLGTQTYICNVNHKPSNTKVDKKVEPKSCDKTHTCPPCPAPELLGGPSVFLFPPKPKDTLMISRTPEVTCVVVDVSHEDPEVKFNWYVDGVEVHNAKTKPREEQYNSTYRVVSVLTVLHQDWLNGKEYKCKVSNKALPAPIEKTISKAKGQPREPQVYTLPPSREEMTKNQVSLSCAVKGFYPSDIAVEWESNGQPENNYKTTPPVLDSDGSFFLVSKLTVDKSRWQQGNVFSCSVMHEALHNRFTQKSLSLSPG light 2: QIVLSQSPAILSASPGEKVTMTCRASSSVSYIHWFQQKPGSSPKPWIYATSNLASGVPVRFSGSGSGTSYSLTISRVEAEDAATYYCQQWTSNPPTFGGGTKLEIKRTVAAPSVFIFPPSDEQLKSGTASVVCLLNNFYPREAKVQWKVDNALQSGNSQESVTEQDSKDSTYSLSSTLTLSKADYEKHKVYACEVTHQGLSSPVTKSFNRGEC | 3.65 | 3.53 |  |  |  |  |  |  | 
